Results: the supplement of paper PMC10567573

B1: TRIM55 (parent)
chain: FQASNPYLPTRGGTTMASGGRFRC

Variants of: B1
Assay: protein stability index of a GFP-peptide fusion (GPS, HEK-293T) (PSI 1-6); higher = more stable
Conditions: c terminus: a fixed tail appended
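Note: lentivirally expressed fusions sorted by FACS into six bins by GFP to DsRed ratio, PSI derived from sequencing read proportions per bin multiplied by bin number.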

Variant	protein stability index
FQASNPYLPTRGGTTMWSGGRFRC [A17W]	1.76
FQASNPYLPTRGGTTMLSGGRFRC [A17L]	2.54
FQASNPYLPTRGGTTMDSGGRFRC [A17D]	1.76
FQASNPYLPTRGGTTMTSGGRFRC [A17T]	1.84
FQASNPYLPTRGGTTMVSGGRFRC [A17V]	3.21
FQASNPYLPTRGGTTMISGGRFRC [A17I]	1.08
FQASNPYLPTRGGTTMGSGGRFRC [A17G]	1.45
FQASNPYLPTRGGTTMESGGRFRC [A17E]	2.52
FQASNPYLPTRGGTTMFSGGRFRC [A17F]	1.88
FQASNPYLPTRGGTTMYSGGRFRC [A17Y]	2.11
FQASNPYLPTRGGTTMKSGGRFRC [A17K]	1.79
FQASNPYLPTRGGTTMQSGGRFRC [A17Q]	2.02
FQASNPYLPTRGGTTMHSGGRFRC [A17H]	1.85
FQASNPYLPTRGGTTMPSGGRFRC [A17P]	1.76
FQASNPYLPTRGGTTMSSGGRFRC [A17S]	2.14
FQASNPYLPTRGGTTMNSGGRFRC [A17N]	2.27
FQASNPYLPTRGGTTMRSGGRFRC [A17R]	2.27
FQASNPYLPTRGGTTMMSGGRFRC [A17M]	1.93
FQASNPYLPTRGGTTMCSGGRFRC [A17C]	2.24
FQASNPYLPTVGGTTMASGGRFRC [R11V]	1.89
FQASNPYLPTWGGTTMASGGRFRC [R11W]	2.68
FQASNPYLPTTGGTTMASGGRFRC [R11T]	1.65
FQASNPYLPTHGGTTMASGGRFRC [R11H]	1.57
FQASNPYLPTFGGTTMASGGRFRC [R11F]	2.01

Variant	protein stability index
FQASNPYLPTNGGTTMASGGRFRC [R11N]	1.86
FQASNPYLPTCGGTTMASGGRFRC [R11C]	2.76
FQASNPYLPTEGGTTMASGGRFRC [R11E]	2.29
FQASNPYLPTQGGTTMASGGRFRC [R11Q]	1.8
FQASNPYLPTLGGTTMASGGRFRC [R11L]	2.15
FQASNPYLPTPGGTTMASGGRFRC [R11P]	2.13
FQASNPYLPTYGGTTMASGGRFRC [R11Y]	2.28
FQASNPYLPTIGGTTMASGGRFRC [R11I]	2.46
FQASNPYLPTSGGTTMASGGRFRC [R11S]	2.02
FQASNPYLPTMGGTTMASGGRFRC [R11M]	2.11
FQASNPYLPTAGGTTMASGGRFRC [R11A]	2.05
FQASNPYLPTGGGTTMASGGRFRC [R11G]	2.02
FQASNPYLPTDGGTTMASGGRFRC [R11D]	2
FQASNPYYPTRGGTTMASGGRFRC [L8Y]	1.59
FQASNPYLPTRGGTTTASGGRFRC [M16T]	1.99
FQASNPYLPTRGGTTHASGGRFRC [M16H]	1.69
FQASNPYLPTRGGTTVASGGRFRC [M16V]	1.27
FQASNPYLPTRGGTTGASGGRFRC [M16G]	2.5
FQASNPYLPTRGGTTKASGGRFRC [M16K]	3.34
FQASNPYLPTRGGTTDASGGRFRC [M16D]	1.65
FQASNPYLPTRGGTTPASGGRFRC [M16P]	2.92
FQASNPYLPTRGGTTWASGGRFRC [M16W]	1.42
FQASNPYLPTRGGTTRASGGRFRC [M16R]	1.86
FQASNPYLPTRGGTTIASGGRFRC [M16I]	2.83

Variant	protein stability index
FQASNPYLPTRGGTTNASGGRFRC [M16N]	2.02
FQASNPYLPTRGGTTYASGGRFRC [M16Y]	1.98
FQASNPYLPTRGGTTAASGGRFRC [M16A]	1.57
FQASNPYLPTRGGTTLASGGRFRC [M16L]	1.79
FQASNPYLPTRGGTTCASGGRFRC [M16C]	1.77
FQASNPYLPTRGGTTFASGGRFRC [M16F]	1.76
FQASNPYLPTRGGTTSASGGRFRC [M16S]	2.67
FQASNPYLPTRGGTTQASGGRFRC [M16Q]	1.57
FQASNPYLPTRGGTTEASGGRFRC [M16E]	1.12
FQASNPYLDTRGGTTMASGGRFRC [P9D]	2.24
FQASNPYLYTRGGTTMASGGRFRC [P9Y]	1.88
FQASNPYLGTRGGTTMASGGRFRC [P9G]	1.63
FQASNPYLNTRGGTTMASGGRFRC [P9N]	1.85
FQASNPYLHTRGGTTMASGGRFRC [P9H]	1.86
FQASNPYLTTRGGTTMASGGRFRC [P9T]	1.73
FQASNPYLETRGGTTMASGGRFRC [P9E]	2.17
FQASNPYLMTRGGTTMASGGRFRC [P9M]	1.83
FQASNPYLITRGGTTMASGGRFRC [P9I]	1.89
FQASNPYLATRGGTTMASGGRFRC [P9A]	1.14
FQASNPYLWTRGGTTMASGGRFRC [P9W]	2.09
FQASNPYLQTRGGTTMASGGRFRC [P9Q]	1.72
FQASNPYLFTRGGTTMASGGRFRC [P9F]	1.5
FQASNPYLRTRGGTTMASGGRFRC [P9R]	2.1
FQASNPYLLTRGGTTMASGGRFRC [P9L]	2.65

Variant	protein stability index
FQASNPYLSTRGGTTMASGGRFRC [P9S]	1.7
FQASNPYLKTRGGTTMASGGRFRC [P9K]	2.09
FQASNPYLVTRGGTTMASGGRFRC [P9V]	2.2
FQASNPYLCTRGGTTMASGGRFRC [P9C]	2.04
FQASNPYLPTRGETTMASGGRFRC [G13E]	1.46
FQASNPYLPTRGMTTMASGGRFRC [G13M]	2.65
FQASNPYLPTRGLTTMASGGRFRC [G13L]	3.49
FQASNPYLPTRGKTTMASGGRFRC [G13K]	2.74
FQASNPYLPTRGPTTMASGGRFRC [G13P]	1.7
FQASNPYLPTRGTTTMASGGRFRC [G13T]	1.65
FQASNPYLPTRGITTMASGGRFRC [G13I]	1.99
FQASNPYLPTRGWTTMASGGRFRC [G13W]	3.33
FQASNPYLPTRGFTTMASGGRFRC [G13F]	1.22
FQASNPYLPTRGCTTMASGGRFRC [G13C]	1.65
FQASNPYLPTRGATTMASGGRFRC [G13A]	1.68
FQASNPYLPTRGSTTMASGGRFRC [G13S]	1.75
FQASNPYLPTRGRTTMASGGRFRC [G13R]	1.7
FQASNPYLPTRGDTTMASGGRFRC [G13D]	1.64
FQASNPYLPTRGYTTMASGGRFRC [G13Y]	1.51
FQASNPYLPTRGNTTMASGGRFRC [G13N]	1.22
FQASNPYLPTRGVTTMASGGRFRC [G13V]	1.9
FQASNPYLPTRGHTTMASGGRFRC [G13H]	2.32
FQASNPYLPTRGQTTMASGGRFRC [G13Q]	2.68
FQASNPYLPTRGGTTMAAGGRFRC [S18A]	1.97

Variant	protein stability index
FQASNPYLPTRGGTTMAFGGRFRC [S18F]	1.95
FQASNPYLPTRGGTTMAVGGRFRC [S18V]	1.21
FQASNPYLPTRGGTTMAYGGRFRC [S18Y]	2.22
FQASNPYLPTRGGTTMAKGGRFRC [S18K]	3.05
FQASNPYLPTRGGTTMANGGRFRC [S18N]	2.19
FQASNPYLPTRGGTTMAQGGRFRC [S18Q]	2.07
FQASNPYLPTRGGTTMAGGGRFRC [S18G]	2.35
FQASNPYLPTRGGTTMAHGGRFRC [S18H]	1.57
FQASNPYLPTRGGTTMACGGRFRC [S18C]	1.35
FQASNPYLPTRGGTTMADGGRFRC [S18D]	2.09
FQASNPYLPTRGGTTMARGGRFRC [S18R]	2.24
FQASNPYLPTRGGTTMATGGRFRC [S18T]	2.23
FQASNPYLPTRGGTTMAPGGRFRC [S18P]	1.79
FQASNPYLPTRGGTTMAEGGRFRC [S18E]	2.22
FQASNPYLPTRGGTTMALGGRFRC [S18L]	2.45
FQASNPYLPTRGGTTMAMGGRFRC [S18M]	2.51
FQASNPYLPTRGGTTMAIGGRFRC [S18I]	1.48
FQASNPYLPTRGGYTMASGGRFRC [T14Y]	1.5
FQASNPYLPTRGGKTMASGGRFRC [T14K]	2.3
FQASNPYLPTRGGCTMASGGRFRC [T14C]	2.23
FQASNPYLPTRGGGTMASGGRFRC [T14G]	1.67
FQASNPYLPTRGGSTMASGGRFRC [T14S]	2.11
FQASNPYLPTRGGETMASGGRFRC [T14E]	2.09
FQASNPYLPTRGGWTMASGGRFRC [T14W]	1.32

Variant	protein stability index
FQASNPYLPTRGGLTMASGGRFRC [T14L]	2.34
FQASNPYLPTRGGDTMASGGRFRC [T14D]	1.27
FQASNPYLPTRGGRTMASGGRFRC [T14R]	1.41
FQASNPYLPTRGGHTMASGGRFRC [T14H]	1.37
FQASNPYLPTRGGQTMASGGRFRC [T14Q]	2.52
FQASNPYLPTRGGVTMASGGRFRC [T14V]	1.54
FQASNPYLPTRGGATMASGGRFRC [T14A]	1.93
FQASNPYLPTRGGFTMASGGRFRC [T14F]	1.5
FQASNPYLPTRGGMTMASGGRFRC [T14M]	2.32
FQASNPYLPTRGGPTMASGGRFRC [T14P]	2.47
FQASNPYLPTRGGNTMASGGRFRC [T14N]	1.73
FQASNPYLPTRGGITMASGGRFRC [T14I]	2
FQASNPYLPTRGGTAMASGGRFRC [T15A]	2.24
FQASNPYLPTRGGTKMASGGRFRC [T15K]	2.19
FQASNPYLPTRGGTRMASGGRFRC [T15R]	2.93
FQASNPYLPTRGGTFMASGGRFRC [T15F]	1.57
FQASNPYLPTRGGTLMASGGRFRC [T15L]	1.69
FQASNPYLPTRGGTWMASGGRFRC [T15W]	1.75
FQASNPYLPTRGGTYMASGGRFRC [T15Y]	1.73
FQASNPYLPTRGGTIMASGGRFRC [T15I]	1.88
FQASNPYLPTRGGTHMASGGRFRC [T15H]	1.18
FQASNPYLPTRGGTNMASGGRFRC [T15N]	2.3
FQASNPYLPTRGGTDMASGGRFRC [T15D]	1.75
FQASNPYLPTRGGTVMASGGRFRC [T15V]	2.54

Variant	protein stability index
FQASNPYLPTRGGTCMASGGRFRC [T15C]	1.28
FQASNPYLPTRGGTMMASGGRFRC [T15M]	1.72
FQASNPYLPTRGGTGMASGGRFRC [T15G]	2.85
FQASNPYLPTRGGTPMASGGRFRC [T15P]	1.52
FQASNPYLPTRGGTEMASGGRFRC [T15E]	1.48
FQASNPYLPTRGGTQMASGGRFRC [T15Q]	1.65
FQASNPYLPTRGGTSMASGGRFRC [T15S]	1.69
FQASNPYLPDRGGTTMASGGRFRC [T10D]	1.61
FQASNPYLPMRGGTTMASGGRFRC [T10M]	3.72
FQASNPYLPNRGGTTMASGGRFRC [T10N]	2.23
FQASNPYLPERGGTTMASGGRFRC [T10E]	2.99
FQASNPYLPYRGGTTMASGGRFRC [T10Y]	1.83
FQASNPYLPSRGGTTMASGGRFRC [T10S]	1.97
FQASNPYLPGRGGTTMASGGRFRC [T10G]	2.03
FQASNPYLPCRGGTTMASGGRFRC [T10C]	2.17
FQASNPYLPVRGGTTMASGGRFRC [T10V]	2.16
FQASNPYLPKRGGTTMASGGRFRC [T10K]	1.74
FQASNPYLPPRGGTTMASGGRFRC [T10P]	2.37
FQASNPYLPWRGGTTMASGGRFRC [T10W]	2.81
FQASNPYLPQRGGTTMASGGRFRC [T10Q]	1.93
FQASNPYLPARGGTTMASGGRFRC [T10A]	2.06
FQASNPYLPRRGGTTMASGGRFRC [T10R]	1.56
FQASNPYLPLRGGTTMASGGRFRC [T10L]	2.4
FQASNPYLPHRGGTTMASGGRFRC [T10H]	2.17

Variant	protein stability index
FQASNPYLPIRGGTTMASGGRFRC [T10I]	1.81
FQASNPYLPFRGGTTMASGGRFRC [T10F]	2.19
FQASNPYLPTRRGTTMASGGRFRC [G12R]	2.79
FQASNPYLPTRSGTTMASGGRFRC [G12S]	2.61
FQASNPYLPTRQGTTMASGGRFRC [G12Q]	1.34
FQASNPYLPTRVGTTMASGGRFRC [G12V]	3.34
FQASNPYLPTRHGTTMASGGRFRC [G12H]	2.04
FQASNPYLPTRPGTTMASGGRFRC [G12P]	1.55
FQASNPYLPTRDGTTMASGGRFRC [G12D]	2.06
FQASNPYLPTRMGTTMASGGRFRC [G12M]	1.05
FQASNPYLPTRLGTTMASGGRFRC [G12L]	2.67
FQASNPYLPTRYGTTMASGGRFRC [G12Y]	1.81
FQASNPYLPTRAGTTMASGGRFRC [G12A]	1.63
FQASNPYLPTRFGTTMASGGRFRC [G12F]	2.86
FQASNPYLPTRNGTTMASGGRFRC [G12N]	1.62
FQASNPYLPTREGTTMASGGRFRC [G12E]	1.55
FQASNPYLPTRCGTTMASGGRFRC [G12C]	2.23
FQASNPYLPTRWGTTMASGGRFRC [G12W]	2.35
FQASNPYLPTRIGTTMASGGRFRC [G12I]	2.77
FQASNPYLPTRTGTTMASGGRFRC [G12T]	2.13
